According to paper PMC12612064:

Biological target: Pre-cleaved FUS (tag-free Fused in sarcoma) (UniProt P35637)
Test: fluorescence correlation spectroscopy

UniProt P35637, sequence (P35637 whole entry, the tested form may be a part): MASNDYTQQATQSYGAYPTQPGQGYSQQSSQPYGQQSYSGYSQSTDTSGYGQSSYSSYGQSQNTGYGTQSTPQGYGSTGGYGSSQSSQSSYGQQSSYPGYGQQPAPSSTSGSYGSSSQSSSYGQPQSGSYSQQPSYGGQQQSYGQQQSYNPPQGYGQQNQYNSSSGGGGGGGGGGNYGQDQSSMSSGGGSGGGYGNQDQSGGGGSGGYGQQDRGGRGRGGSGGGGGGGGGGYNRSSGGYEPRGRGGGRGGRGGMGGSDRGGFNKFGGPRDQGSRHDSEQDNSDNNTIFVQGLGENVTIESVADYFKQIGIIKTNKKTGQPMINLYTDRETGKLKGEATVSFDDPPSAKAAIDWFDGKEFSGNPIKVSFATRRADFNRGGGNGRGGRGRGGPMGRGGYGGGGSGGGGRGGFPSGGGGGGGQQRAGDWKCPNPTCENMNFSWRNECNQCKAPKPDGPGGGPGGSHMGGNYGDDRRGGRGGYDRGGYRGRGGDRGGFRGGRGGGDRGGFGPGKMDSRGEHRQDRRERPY

Substance: Cy3-labeled pre-cleaved FUS (from UniProt P35637 1-526) (natural protein)
- second critical concentration (condensate formation): 1 µM
